What was measured:
[1] = target: GST-Snail-ΔZn (zinc finger mutant) (UniProt O95863 1-264, H176D;C180A;C210D;H230D;H252D;C259A); assay: pull-down; EMSA: 10 mM Tris pH 7.5, 50 mM KCl, 1 mM DTT, 5 mM MgCl2, 2.5% glycerol, 0.05% NP-40, 50 ng/ul poly(dI.dC), 600 fmol probe, 12 ug GST protein in 20 ul; gel 6% 0.5x TBE 4 C. Pull-down: NeutrAvidin beads, 8 h 4 C, washed in IP buffer (50 mM Tris pH 7.5, 150 mM NaCl, 1% Triton X-100); settings: protein: recombinant; tags: N-terminal GST; label: biotin (probe); blunt
Sequence of GST-Snail-ΔZn (zinc finger mutant) (O95863 whole entry H176D/C180A/C210D/H230D/H252D/C259A): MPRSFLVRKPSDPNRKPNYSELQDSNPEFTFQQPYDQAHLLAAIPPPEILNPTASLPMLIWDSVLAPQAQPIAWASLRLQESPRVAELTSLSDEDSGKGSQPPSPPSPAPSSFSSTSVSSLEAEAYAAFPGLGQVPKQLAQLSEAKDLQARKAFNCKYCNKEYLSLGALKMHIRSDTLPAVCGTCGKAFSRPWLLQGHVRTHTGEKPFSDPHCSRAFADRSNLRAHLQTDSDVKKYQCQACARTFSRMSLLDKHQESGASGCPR

GST-Snail;Flag-p66β = GST-Snail;Flag-p66β (human?;human?, UniProt O95863;Q8WXI9 1-264;1-593, |); assay: pull-down; p66β enhanced Snail binding; EMSA: 10 mM Tris pH 7.5, 50 mM KCl, 1 mM DTT, 5 mM MgCl2, 2.5% glycerol, 0.05% NP-40, 50 ng/ul poly(dI.dC), 600 fmol probe, 12 ug GST protein in 20 ul; gel 6% 0.5x TBE 4 C. Pull-down: NeutrAvidin beads, 8 h 4 C, washed in IP buffer (50 mM Tris pH 7.5, 150 mM NaCl, 1% Triton X-100); settings: protein: recombinant;recombinant; tags: N-terminal GST (pGEX-4T-1);Flag; label: biotin (probe); blunt
Sequence of GST-Snail;Flag-p66β (O95863 whole entry, chain 1 of 2): as the sequence (O95863 whole entry H176D/C180A/C210D/H230D/H252D/C259A) above, with D176H, A180C, D210C, D230H, D252H, A259C counted along it
Sequence of GST-Snail;Flag-p66β (Q8WXI9 whole entry, chain 2 of 2): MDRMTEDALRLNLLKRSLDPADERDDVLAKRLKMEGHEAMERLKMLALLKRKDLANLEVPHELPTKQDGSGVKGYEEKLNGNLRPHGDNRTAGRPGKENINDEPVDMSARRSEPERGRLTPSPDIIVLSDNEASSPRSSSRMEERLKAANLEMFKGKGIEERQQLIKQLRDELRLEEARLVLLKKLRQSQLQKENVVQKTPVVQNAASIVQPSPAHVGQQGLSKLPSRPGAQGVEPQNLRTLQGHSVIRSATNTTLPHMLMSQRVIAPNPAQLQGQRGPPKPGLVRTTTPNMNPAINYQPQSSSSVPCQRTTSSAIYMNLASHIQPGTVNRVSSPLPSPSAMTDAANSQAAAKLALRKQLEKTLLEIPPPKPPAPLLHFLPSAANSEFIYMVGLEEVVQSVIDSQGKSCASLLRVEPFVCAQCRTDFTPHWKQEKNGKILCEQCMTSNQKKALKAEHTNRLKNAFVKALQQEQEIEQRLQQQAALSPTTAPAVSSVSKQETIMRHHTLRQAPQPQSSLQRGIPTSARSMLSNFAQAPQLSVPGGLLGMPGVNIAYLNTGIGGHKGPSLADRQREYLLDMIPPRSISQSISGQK

B1: COL6A2-G-box-WT (dsDNA)
DNA 1: GGCCCCCTCCTCCCATCCGCG
DNA 2: CGCGGATGGGAGGAGGGGGCC
[1]
  binding result: no binding
GST-Snail;Flag-p66β
  binding result: binds

From PMC10307831, “GATA zinc finger protein p66β promotes breast cancer cell migration by acting as a co-activator of Snail”
